Results on 21 molecules are retold here after patent publication US20210070881A1 (DENALI THERAPEUTICS, published 2021).

Residue numbers refer to the chain shown, from its start. Where two headings read alike, the source gives them in different places.

Test [1] concerns the target T1, recombinant BACE1 (BACE1 extracellular domain, R&D Systems Cat#931-AS) (UniProt P56817 22-457).
T1 construct: extracellular domain; also called BACE1 extracellular domain protein
Kind of test: SPR Biacore 8K, antibody captured, BACE1 analyte. On the procedure: (§1) The binding affinities of the affinity matured humanized 2H8 variants for BACE1 were determined by surface plasmon resonance using a Biacore™ 8K instrument. […] The binding was monitored for 300 seconds and then dissociation was monitored for 600+ seconds in HBS-EP+ running buffer (GE Healthcare Life Sciences, BR100669). Binding response was corrected by subtracting the RU from a blank flow cell. A 1:1 Langmuir model of simultaneous fitting of kₒₙ and koff was used for kinetics analysis.
Background: SPR reads the build-up and loss of mass on a sensor chip optically.

The target in test [2] is T1, recombinant BACE1 (BACE1 extracellular …). Kind of test: SPR Biacore.
Test [3] has the same target. Kind of test: SPR Biacore 8K, antibody captured, BACE1 analyte. On the procedure:
as §1
The source holds these as a separate data set.

Test [4] has as its target cellular BACE1 in CHOK1-huAPP cells. Kind of test: cell-based or functional assay.
The target is the same in test [5]. Kind of test: cell-based or functional assay. The source holds these as a separate data set.
In test [6] the target is BACE1 in primary human neurons (human, UniProt P56817 46-501). Kind of test: cell-based or functional assay.
Test [7] has as its target T1, recombinant BACE1 (BACE1 extracellular …). Kind of test: SPR Biacore T200, IgG captured, BACE1 analyte. The procedure:
The affinity of chimeric IgG antibodies for recombinant BACE1 was determined by surface plasmon resonance using a Biacore™ T200 instrument. Biacore™ Series S CMS sensor chips were immobilized with monoclonal mouse anti-human IgG (Fc) antibody (e.g., using a human antibody capture kit from GE Healthcare). 1 μg/mL of antibody was captured for 1 minute on each flow cell and serial 3-fold dilutions of recombinant BACE1 were injected at a flow rate of 30 μL/min. Each sample was analyzed with a 3-minute association and a 10-minute dissociation. After each injection, the chip was regenerated using 3M MgCl₂. Binding response was corrected by subtracting the RU from a flow cell capturing an irrelevant IgG at similar density. A 1:1 Langmuir model of simultaneous fitting of kₒₙ and koff was used for analysis of kinetics.

In test [8] the target is cellular BACE1 in CHOK1-huAPP cells. Kind of test: cell-based or functional assay. This is another data set of the same source.
The target is the same in test [9]. Kind of test: cell-based or functional assay. The source holds these as a separate data set.
Test [10] addresses T1, recombinant BACE1 (BACE1 extracellular …). Kind of test: SPR Biacore. This is another data set of the same source.
In test [11] the target is T2, human TfR (human, UniProt P02786 89-760, limits assumed).
T2 construct: Protein coated on ELISA plates; also called human transferrin receptor protein 1
Kind of test: soft-randomization libraries selected on TfR.

Test [12] has as its target T2, human TfR. Kind of test: ELISA, TfR coated, Fab-Fc fusion. On the procedure:
Binding ELISAs were conducted with purified Fab-Fc fusion variants with human or cyno TfR coated on the plate, as described above. The variants from the clone CH3C.18 maturation library, clone CH3C.3.2-1, clone CH3C.3.2-5, and clone CH3C.3.2-19, bound human and cyno TfR with approximately equivalent EC₅₀ values, whereas the parent clones CH3C.18 and CH3C.35 had greater than 10-fold better binding to human versus cyno TfR.
For orientation: In an ELISA, binding on a coated surface is turned into a signal by an enzyme label.

T1 sequence (P56817 22-457): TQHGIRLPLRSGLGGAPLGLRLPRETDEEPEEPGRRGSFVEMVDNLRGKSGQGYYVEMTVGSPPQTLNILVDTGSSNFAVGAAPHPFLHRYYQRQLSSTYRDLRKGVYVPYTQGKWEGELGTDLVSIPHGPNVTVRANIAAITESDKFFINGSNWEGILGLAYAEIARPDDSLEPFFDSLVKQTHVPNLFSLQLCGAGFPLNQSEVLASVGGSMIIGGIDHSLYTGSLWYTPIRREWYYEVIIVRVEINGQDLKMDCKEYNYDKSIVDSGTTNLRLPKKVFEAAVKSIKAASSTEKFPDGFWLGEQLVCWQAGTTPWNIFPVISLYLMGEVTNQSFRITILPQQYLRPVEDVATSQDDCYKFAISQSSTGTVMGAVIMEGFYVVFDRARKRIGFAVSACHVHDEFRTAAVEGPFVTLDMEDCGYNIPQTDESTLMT
T2 sequence (P02786 89-760 limits assumed): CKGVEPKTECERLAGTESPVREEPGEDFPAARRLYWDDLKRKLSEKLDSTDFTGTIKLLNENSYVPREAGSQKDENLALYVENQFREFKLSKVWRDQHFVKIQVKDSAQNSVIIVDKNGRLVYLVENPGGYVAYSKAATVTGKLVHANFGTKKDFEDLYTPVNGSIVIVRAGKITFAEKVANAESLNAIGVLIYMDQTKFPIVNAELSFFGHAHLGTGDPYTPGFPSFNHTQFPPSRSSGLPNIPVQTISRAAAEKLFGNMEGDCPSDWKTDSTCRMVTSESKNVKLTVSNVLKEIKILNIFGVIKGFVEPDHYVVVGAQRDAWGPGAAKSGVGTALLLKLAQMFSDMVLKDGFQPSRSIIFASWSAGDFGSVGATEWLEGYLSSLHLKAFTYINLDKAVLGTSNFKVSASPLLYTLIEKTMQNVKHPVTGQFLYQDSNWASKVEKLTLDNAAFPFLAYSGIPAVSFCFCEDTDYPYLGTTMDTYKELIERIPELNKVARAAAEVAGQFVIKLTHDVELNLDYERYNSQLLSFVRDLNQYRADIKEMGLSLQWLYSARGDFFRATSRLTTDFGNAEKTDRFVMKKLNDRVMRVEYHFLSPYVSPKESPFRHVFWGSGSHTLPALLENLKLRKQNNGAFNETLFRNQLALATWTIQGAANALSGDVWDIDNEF
Chain of BACE1 in primary human neurons (P56817 46-501): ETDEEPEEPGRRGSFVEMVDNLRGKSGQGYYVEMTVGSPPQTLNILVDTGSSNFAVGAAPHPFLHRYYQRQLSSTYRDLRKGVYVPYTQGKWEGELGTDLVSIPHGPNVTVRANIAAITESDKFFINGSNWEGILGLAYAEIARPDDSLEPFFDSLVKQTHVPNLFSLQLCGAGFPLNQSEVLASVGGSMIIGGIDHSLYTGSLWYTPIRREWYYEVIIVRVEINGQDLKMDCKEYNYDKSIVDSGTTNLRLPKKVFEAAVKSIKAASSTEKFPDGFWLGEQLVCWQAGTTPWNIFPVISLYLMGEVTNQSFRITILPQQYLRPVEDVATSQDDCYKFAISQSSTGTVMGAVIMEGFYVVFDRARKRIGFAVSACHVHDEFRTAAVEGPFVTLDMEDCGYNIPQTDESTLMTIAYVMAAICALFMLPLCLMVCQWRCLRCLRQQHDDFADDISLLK

B1: hu2H8v29 (antibody, V domains shown)
VH: QVQLVQSGAEVKKPGASVKVSCKASGYTFTNFWIHWVRQAPGQGLEWMGMIDPSDSYTKYNQKFKARATLTVDTSTSTVYMELSSLRSEDTAVYYCARSGVAFPYWGQGTLVTVSS
VL: DIQMTQSPSSLSASVGDRVTITCKASQDVGRNVAWYQQKPGKSPKSLIYSASHRYSGVPSRFSGSGSGTDFTLTISSLQPEDFATYFCQQYNSYPYTFGQGTKVEIK
notes: humanized; also called hu2H8_HC6 + hu2H8_LC5
As for B1, the Kd turned out to be 9.21 nM in [1], 12 nM in test [2] and 9.21 nM in test [3]. Further, in test [4], half-maximal inhibition (IC50) was put at 14.8 nM. Besides, the Max. % inhibition in [4] amounted to 86%.

B2: Clone35.23.4:2H8/2H8 (antibody, V domains shown)
VH: B1 VH with D55S, V101A, A102S, F103L
VL: B1 VL with R54Y, N92Y
For B2, in test [5], the “cellular IC50 (human Aβ40, CHO-huAPP cells)” value amounted to 10 nM.

B3: hu2H8v29.3 (antibody, V domains shown)
VH: B1 VH
VL: B1 VL with R54M
notes: captured via human Fc; also called hu2H8_HC6 + hu2H8_LC5.3
Regarding B3, the Kd in [1] amounted to 6.93 nM.

B4: hu2H8v29.6 (antibody, V domains shown)
VH: B1 VH
VL: B1 VL with R54L
notes: captured via human Fc; also called hu2H8_HC6 + hu2H8_LC5.6
B4: the Kd in [1] amounted to 7.51 nM.

B5: hu2H8v29.9 (antibody, V domains shown)
VH: B1 VH
VL: B1 VL with S93A
notes: captured via human Fc; also called hu2H8_HC6 + hu2H8_LC5.9
On to B5, for which the Kd in test [1] amounted to 11 nM.

B6: hu2H8v17 (antibody, V domains shown)
VH: B1 VH
VL: B1 VL with S43A, F87Y
notes: humanized; also called hu2H8_HC6 + hu2H8_LC3
B6: the Kd in test [2] stood at 12.1 nM. In addition, in test [4], the “IC50” value was 22.1 nM and the Max. % inhibition worked out at 91%.

B7: hu2H8v27 (antibody, V domains shown)
VH: B1 VH with V37L, A68V, L70M, V79T
VL: B1 VL
notes: humanized; also called hu2H8_HC3 + hu2H8_LC5
With B7, the Kd in test [2] worked out at 12.8 nM. In test [4], the “IC50” value turned out to be 16.5 nM and the Max. % inhibition is 85%.

B8: hu2H8v29.5 (antibody, V domains shown)
VH: B1 VH
VL: B1 VL with R54K
notes: captured via human Fc; also called hu2H8_HC6 + hu2H8_LC5.5
B8: the Kd in test [1] amounted to 8.21 nM.

B9: hu2H8v29.8 (antibody, V domains shown)
VH: B1 VH
VL: B1 VL with N92Q
notes: captured via human Fc; also called hu2H8_HC6 + hu2H8_LC5.8
Take B9: the Kd in test [1] is 8.1 nM.

B10: hu2H8v29.7 (antibody, V domains shown)
VH: B1 VH
VL: B1 VL with N92S
notes: captured via human Fc; also called hu2H8_HC6 + hu2H8_LC5.7
For B10, in test [1], the Kd is 4.99 nM.

B11: hu2H8v29.11 (antibody, V domains shown)
VH: B1 VH
VL: B1 VL with N92Y, P95A
notes: captured via human Fc; also called hu2H8_HC6 + hu2H8_LC5.11
On to B11, for which the Kd in test [1] was 4.83 nM.

B12: hu2H8v29.10 (antibody, V domains shown)
VH: B1 VH
VL: B1 VL with N92Y
notes: captured via human Fc; also called hu2H8_HC6 + hu2H8_LC5.10
Regarding B12, the Kd in test [1] turned out to be 4.84 nM.

B13: hu2H8v29.4 (antibody, V domains shown)
VH: B1 VH
VL: B1 VL with R54Q
notes: captured via human Fc; also called hu2H8_HC6 + hu2H8_LC5.4
Consider B13, for which, in test [1], the Kd is 6.53 nM.

B14: 2H8 (antibody, human IgG1, V domains shown)
VH: EVQLQQSGPELVKPGASVKLSCKASGYTFTNFWIHWLKQRPGQGLEWIGMIDPSDSYTKYNQKFKAKATLTVDTSSSTTYMHLSSLTSEDSAVYYCARSGVAFPYWGQRTLVTVSA
VL: DIVMTQSQKFMSKSVGDTVSVTCKASQDVGRNVAWYQQKSGQSPKSLIYSASHRYSGVPDRFTGSGSGTDFTLTISNVQSEDLADYFCQQYNSYPYTFGGGTRLEIK
notes: chimeric, human IgG1/kappa; also called Clone 2H8; 2H8.01
As to B14, the “IC50 of Aβ40 formation, primary human neurons” value in test [6] came to 15 nM. In addition, in test [7], the Kd is 6.3 nM, the koff is 0.00019 s⁻¹ and the kon stood at 30000 M⁻¹ s⁻¹. For the same molecule, in [8], the “% Max Inhibition” value is 71% and the “Cellular IC50” value was found to be 16 nM. Also, in [9], the “IC50” value amounted to 25 nM and the Max. % inhibition is 82%. Besides, the Kd in test [2] was 14.8 nM. Moreover, in test [4], the “IC50” value was 24.8 nM and the Max. % inhibition is 82%. In [10], the Kd was determined as 14.8 nM, the koff was determined as 0.000316 s⁻¹ and the kon came out at 21400 M⁻¹ s⁻¹.

B15: Clone CH3C.21 (designed binder)
chain: APELLGGPSVFLFPPKPKDTLMISRTPEVTCVVVDVSHEDPEVKFNWYVDGVEVHNAKTKPREEQYNSTYRVVSVLTVLHQDWLNGKEYKCKVSNKALPAPIEKTISKAKGQPREPQVYTLPPSRDELTKNQVSLTCLVKGFYPSDIAVEWESLGLVWVGYKTTPPVLDSDGSFFLYSKLTVPKSTWQQGWVFSCSVMHEALHNHYTQKSLSLSPGK
notes: modified Fc polypeptide
For B15, in test [11], the binding result is recorded as “binds”.

B16: Clone CH3C.51 (designed binder)
chain: B15 chain with L156H, P183S, T186E
notes: modified Fc polypeptide
As for B16, in test [11], the binding result is listed as “binds”.

B17: Clone CH3C.25 (designed binder)
chain: B15 chain with L154M, L156H, P183D
notes: modified Fc polypeptide
With B17, the binding result in [11] is listed as “binds”.

B18: Clone CH3C.3.2-1 (designed binder)
chain: B15 chain with L156H, G160N, Y161F
notes: modified Fc polypeptide; tested as purified Fab-Fc fusion, Fab not identified
Regarding B18, the binding result in test [12] is “binds”.

B19: Clone CH3C.34 (designed binder)
chain: B15 chain with G160F, Y161S
notes: modified Fc polypeptide
Take B19: the binding result in test [11] is given as “binds”.

B20: Clone CH3C.44 (designed binder)
chain: B15 chain with L154Y, L156T, V157E, V159S, G160N, P183S, T186E, W191F
notes: modified Fc polypeptide
Regarding B20, in test [11], the binding result is given as “binds”.

B21: Clone CH3C.17 (designed binder)
chain: B15 chain with L154Y, L156T, V159S, G160K, P183S, T186E, W191F
notes: modified Fc polypeptide
In the case of B21, the binding result in test [11] is listed as “binds”.

The term Kd denotes a measure of binding affinity in units of concentration. Broadly, the IC50 is the concentration at which inhibition is half-maximal. A lower IC50 goes with higher potency. The term koff denotes the first-order rate constant of dissociation. As usually defined, the kon is the second-order rate constant of association.
